The text below walks through data of paper PMC8991256.

The test has as its target LH1–RC core complex, monomeric component of the native dimer (Rhodobacter sphaeroides f. sp. denitrificans strain IL106 (endogenous)) (UniProt Q3J1A4). Kind of test: cryo-EM structure; native dimeric LH1–RC from Rba. sphaeroides IL106 in DDM, ~5 mg/ml; C1 symmetry, 2.75 Å.

Usually stoichiometry N stands for a count of units in the complex or per binding partner. “LH1–RC core complex, monomeric component of the native dimer (from UniProt Q3J1A4 1-58; Q3J1A3 1-49; P0C0Y8 1-282; P0C0Y9 1-308; P0C0Y7 1-260; P13402 1-82)” returned a stoichiometry N of 2.
